Source: article PMC4669500, “Characterization of Pseudooxynicotine Amine Oxidase of Pseudomonas putida S16 that Is Crucial for Nicotine Degradation” (Scientific Reports, 2015)

Columns and labels:
[1] = biological target: T1, Pnao (pseudooxynicotine amine oxidase) (Pseudomonas putida, UniProt F8G0P1); test: HPLC and UV-Vis of cofactor released by boiling purified protein; format: binding; settings: co-purified cofactor, non-covalent (released by boiling)
T1 construct: full-length, His6-tagged (pET28a NcoI-XhoI, tag kept), expressed in E. coli C43(DE3), about 54 kDa; FAD-containing
T1 sequence (F8G0P1 whole entry): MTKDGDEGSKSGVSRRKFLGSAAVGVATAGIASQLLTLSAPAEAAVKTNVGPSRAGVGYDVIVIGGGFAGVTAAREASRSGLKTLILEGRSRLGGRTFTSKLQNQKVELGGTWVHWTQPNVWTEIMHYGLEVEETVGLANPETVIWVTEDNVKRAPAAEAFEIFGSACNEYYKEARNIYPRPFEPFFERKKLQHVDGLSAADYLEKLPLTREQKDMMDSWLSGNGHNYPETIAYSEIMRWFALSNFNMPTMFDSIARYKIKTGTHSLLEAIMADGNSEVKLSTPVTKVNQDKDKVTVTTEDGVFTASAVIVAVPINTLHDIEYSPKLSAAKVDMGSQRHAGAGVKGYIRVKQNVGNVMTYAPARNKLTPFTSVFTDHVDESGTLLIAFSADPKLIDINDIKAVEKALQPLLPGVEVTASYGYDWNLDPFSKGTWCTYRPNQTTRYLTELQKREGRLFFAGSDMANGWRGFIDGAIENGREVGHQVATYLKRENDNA

CNCCCC(=O)c1cccnc1 = test: purified protein; format: biochemical, Pseudomonas putida; settings: 30 °C, 25 mM sodium phosphate pH 8.5, O2 as oxidant

Compound	HPLC and UV-Vis of cofactor released by boiling purified protein [1]	Km (CNCCCC(=O)c1cccnc1) [µM]	kcat (CNCCCC(=O)c1cccnc1) [s⁻¹]
Cc1cc2nc3c(=O)[nH]c(=O)nc-3n(C[C@H](O)[C@H](O)[C@H](O)COP(=O)(O)OP(=O)(O)OC[C@H]3O[C@@H](n4cnc5c(N)ncnc54)[C@H](O)[C@@H]3O)c2cc1C [FAD, Flavin adenine dinucleotide]	These results indicated that FAD was the cofactor associated with Pnao	–	–
Pnao (pseudooxynicotine amine oxidase) (Pseudomonas putida S16)	–	73 ± 18	0.790 ± 0.074
